What all share (assay): cell-based or functional assay
Assay [1] addresses human B-domainless factor VIII P485 → A (human) (UniProt P00451).
Assay [2] concerns the target HP5, hybrid human/porcine B-domainless factor VIII, porcine substitution 373-508 (human; porcine) (UniProt P00451).
Assay [3] concerns the target HP10, hybrid human/porcine B-domainless factor VIII, porcine substitution 373-403 (human; porcine) (UniProt P00451).
In assay [4] the target is HP7, hybrid human/porcine B-domainless factor VIII, porcine substitution 445-508 (human; porcine) (UniProt P00451).
The target in assay [5] is HP9, hybrid human/porcine B-domainless factor VIII, porcine substitution 484-508 (human; porcine) (UniProt P00451).
In assay [6] the target is human B-domainless factor VIII I508 → A (human) (UniProt P00451).
The target of assay [7] is HP6, hybrid human/porcine B-domainless factor VIII, porcine substitution 373-444 (human; porcine) (UniProt P00451).
Assay [8] addresses human B-domainless factor VIII P492 → A (human) (UniProt P00451).
Assay [9] addresses HP4, hybrid human/porcine B-domainless factor VIII, porcine substitution 373-540 (human; porcine) (UniProt P00451).
Assay [10] has as its target HP13, hybrid human/porcine B-domainless factor VIII, porcine substitution 484-488 (human; porcine) (UniProt P00451).
For assay [11], the target named is human B-domainless factor VIII Y487 → A (human) (UniProt P00451).
For assay [12], the target named is human B-domainless factor VIII R489 → A (human) (UniProt P00451).
For assay [13], the target named is human B-domainless factor VIII F501 → A (human) (UniProt P00451).
Assay [14] concerns the target human B-domainless factor VIII R490 → A (human) (UniProt P00451).
The target of assay [15] is HP11, hybrid human/porcine B-domainless factor VIII, porcine substitution 404-508 (human; porcine) (UniProt P00451).
The target in assay [16] is human B-domainless factor VIII S488 → A (human) (UniProt P00451).
Chain of human B-domainless factor VIII S488 → A (human) (P00451 other isoform, or with tags, fused parts or gaps): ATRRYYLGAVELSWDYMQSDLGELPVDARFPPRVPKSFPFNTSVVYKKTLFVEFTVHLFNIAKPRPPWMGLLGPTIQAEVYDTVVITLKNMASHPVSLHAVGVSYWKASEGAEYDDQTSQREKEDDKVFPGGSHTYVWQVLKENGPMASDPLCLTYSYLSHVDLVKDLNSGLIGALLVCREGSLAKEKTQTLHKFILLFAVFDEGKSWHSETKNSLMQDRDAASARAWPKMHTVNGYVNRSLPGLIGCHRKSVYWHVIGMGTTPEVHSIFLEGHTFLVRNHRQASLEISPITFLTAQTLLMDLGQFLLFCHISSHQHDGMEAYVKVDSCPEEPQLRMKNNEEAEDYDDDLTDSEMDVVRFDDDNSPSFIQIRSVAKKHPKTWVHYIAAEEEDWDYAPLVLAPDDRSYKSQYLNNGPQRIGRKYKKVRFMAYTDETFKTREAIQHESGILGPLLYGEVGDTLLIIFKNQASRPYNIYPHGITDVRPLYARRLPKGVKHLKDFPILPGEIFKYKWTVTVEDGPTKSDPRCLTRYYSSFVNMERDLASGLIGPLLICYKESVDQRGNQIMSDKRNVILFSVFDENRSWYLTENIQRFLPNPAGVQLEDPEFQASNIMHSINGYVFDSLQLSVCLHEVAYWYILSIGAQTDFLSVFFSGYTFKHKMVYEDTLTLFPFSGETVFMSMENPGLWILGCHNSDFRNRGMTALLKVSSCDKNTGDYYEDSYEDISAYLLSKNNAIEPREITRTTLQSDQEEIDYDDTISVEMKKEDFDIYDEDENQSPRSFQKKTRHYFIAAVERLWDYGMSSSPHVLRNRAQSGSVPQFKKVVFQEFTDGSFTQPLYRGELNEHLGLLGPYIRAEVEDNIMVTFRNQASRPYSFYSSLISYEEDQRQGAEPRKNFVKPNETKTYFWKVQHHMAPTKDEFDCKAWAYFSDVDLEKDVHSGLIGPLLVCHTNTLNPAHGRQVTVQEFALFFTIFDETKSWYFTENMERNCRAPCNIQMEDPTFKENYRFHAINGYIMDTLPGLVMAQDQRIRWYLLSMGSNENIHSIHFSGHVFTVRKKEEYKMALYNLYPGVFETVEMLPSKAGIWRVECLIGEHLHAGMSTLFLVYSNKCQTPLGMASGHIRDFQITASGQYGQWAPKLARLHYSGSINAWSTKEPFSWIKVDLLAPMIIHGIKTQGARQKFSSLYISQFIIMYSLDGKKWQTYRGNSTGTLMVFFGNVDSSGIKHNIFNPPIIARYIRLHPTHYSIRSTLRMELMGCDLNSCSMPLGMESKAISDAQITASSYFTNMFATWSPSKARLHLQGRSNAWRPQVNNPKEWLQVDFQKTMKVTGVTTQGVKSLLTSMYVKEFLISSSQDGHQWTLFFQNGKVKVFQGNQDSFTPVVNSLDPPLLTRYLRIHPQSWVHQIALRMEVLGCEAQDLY
Assay [17] concerns the target HP12, hybrid human/porcine B-domainless factor VIII, porcine substitution 489-508 (human; porcine) (UniProt P00451).
Assay [18] concerns the target B-domainless human factor VIII (human) (UniProt P00451).
Assay [19] concerns the target human B-domainless factor VIII V495 → A (human) (UniProt P00451).
Assay [20] addresses human B-domainless factor VIII R484 → A (human) (UniProt P00451).
Assay [21] concerns the target HP8, hybrid human/porcine B-domainless factor VIII, porcine substitution 373-483 (human; porcine) (UniProt P00451).
Assay [22] deals with human A1/A3-C1-C2 dimer of factor VIIIa (human) (UniProt P00451).
Assay [23] has as its target porcine A1/A3-C1-C2 dimer of factor VIIIa (porcine) (UniProt P12263).

Chain of B-domainless human factor VIII (human) (P00451 other isoform, or with tags, fused parts or gaps): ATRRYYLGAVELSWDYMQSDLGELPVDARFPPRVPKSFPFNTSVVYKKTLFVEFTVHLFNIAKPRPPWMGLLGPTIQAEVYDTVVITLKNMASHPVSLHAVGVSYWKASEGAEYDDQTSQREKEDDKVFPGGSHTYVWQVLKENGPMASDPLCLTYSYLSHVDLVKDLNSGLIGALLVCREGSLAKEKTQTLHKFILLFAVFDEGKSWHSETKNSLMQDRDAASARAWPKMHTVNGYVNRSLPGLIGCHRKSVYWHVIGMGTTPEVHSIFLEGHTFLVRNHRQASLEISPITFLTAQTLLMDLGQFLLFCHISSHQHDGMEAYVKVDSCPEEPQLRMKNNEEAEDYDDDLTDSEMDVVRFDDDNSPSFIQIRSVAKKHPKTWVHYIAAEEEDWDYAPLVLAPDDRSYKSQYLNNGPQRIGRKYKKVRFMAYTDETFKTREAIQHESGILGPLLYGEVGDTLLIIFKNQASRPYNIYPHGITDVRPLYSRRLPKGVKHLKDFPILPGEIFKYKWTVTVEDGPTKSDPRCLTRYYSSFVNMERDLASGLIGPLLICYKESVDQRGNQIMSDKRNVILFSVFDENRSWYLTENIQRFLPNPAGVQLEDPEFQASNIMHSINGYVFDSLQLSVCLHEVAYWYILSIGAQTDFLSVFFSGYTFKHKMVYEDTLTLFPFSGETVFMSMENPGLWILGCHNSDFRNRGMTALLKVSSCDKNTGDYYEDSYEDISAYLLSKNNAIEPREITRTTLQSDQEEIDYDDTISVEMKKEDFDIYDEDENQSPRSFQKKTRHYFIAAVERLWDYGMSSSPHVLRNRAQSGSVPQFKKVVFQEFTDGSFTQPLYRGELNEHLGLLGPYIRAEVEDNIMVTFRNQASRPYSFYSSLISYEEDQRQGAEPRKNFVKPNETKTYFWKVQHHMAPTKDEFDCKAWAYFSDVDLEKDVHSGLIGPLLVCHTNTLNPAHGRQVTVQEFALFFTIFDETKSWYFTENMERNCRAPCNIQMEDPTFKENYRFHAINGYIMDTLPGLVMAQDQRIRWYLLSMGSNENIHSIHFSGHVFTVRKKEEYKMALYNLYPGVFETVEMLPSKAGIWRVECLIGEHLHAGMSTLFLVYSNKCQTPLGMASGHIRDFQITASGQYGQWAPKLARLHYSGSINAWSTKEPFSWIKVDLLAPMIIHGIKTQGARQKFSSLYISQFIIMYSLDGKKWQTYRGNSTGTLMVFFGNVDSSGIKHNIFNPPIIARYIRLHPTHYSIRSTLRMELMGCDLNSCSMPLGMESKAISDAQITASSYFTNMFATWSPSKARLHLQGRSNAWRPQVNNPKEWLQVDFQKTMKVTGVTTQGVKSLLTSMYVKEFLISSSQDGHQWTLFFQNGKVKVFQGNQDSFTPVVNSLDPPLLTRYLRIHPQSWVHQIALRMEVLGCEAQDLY
Chain of human B-domainless factor VIII P492 → A (human) (P00451 other isoform, or with tags, fused parts or gaps): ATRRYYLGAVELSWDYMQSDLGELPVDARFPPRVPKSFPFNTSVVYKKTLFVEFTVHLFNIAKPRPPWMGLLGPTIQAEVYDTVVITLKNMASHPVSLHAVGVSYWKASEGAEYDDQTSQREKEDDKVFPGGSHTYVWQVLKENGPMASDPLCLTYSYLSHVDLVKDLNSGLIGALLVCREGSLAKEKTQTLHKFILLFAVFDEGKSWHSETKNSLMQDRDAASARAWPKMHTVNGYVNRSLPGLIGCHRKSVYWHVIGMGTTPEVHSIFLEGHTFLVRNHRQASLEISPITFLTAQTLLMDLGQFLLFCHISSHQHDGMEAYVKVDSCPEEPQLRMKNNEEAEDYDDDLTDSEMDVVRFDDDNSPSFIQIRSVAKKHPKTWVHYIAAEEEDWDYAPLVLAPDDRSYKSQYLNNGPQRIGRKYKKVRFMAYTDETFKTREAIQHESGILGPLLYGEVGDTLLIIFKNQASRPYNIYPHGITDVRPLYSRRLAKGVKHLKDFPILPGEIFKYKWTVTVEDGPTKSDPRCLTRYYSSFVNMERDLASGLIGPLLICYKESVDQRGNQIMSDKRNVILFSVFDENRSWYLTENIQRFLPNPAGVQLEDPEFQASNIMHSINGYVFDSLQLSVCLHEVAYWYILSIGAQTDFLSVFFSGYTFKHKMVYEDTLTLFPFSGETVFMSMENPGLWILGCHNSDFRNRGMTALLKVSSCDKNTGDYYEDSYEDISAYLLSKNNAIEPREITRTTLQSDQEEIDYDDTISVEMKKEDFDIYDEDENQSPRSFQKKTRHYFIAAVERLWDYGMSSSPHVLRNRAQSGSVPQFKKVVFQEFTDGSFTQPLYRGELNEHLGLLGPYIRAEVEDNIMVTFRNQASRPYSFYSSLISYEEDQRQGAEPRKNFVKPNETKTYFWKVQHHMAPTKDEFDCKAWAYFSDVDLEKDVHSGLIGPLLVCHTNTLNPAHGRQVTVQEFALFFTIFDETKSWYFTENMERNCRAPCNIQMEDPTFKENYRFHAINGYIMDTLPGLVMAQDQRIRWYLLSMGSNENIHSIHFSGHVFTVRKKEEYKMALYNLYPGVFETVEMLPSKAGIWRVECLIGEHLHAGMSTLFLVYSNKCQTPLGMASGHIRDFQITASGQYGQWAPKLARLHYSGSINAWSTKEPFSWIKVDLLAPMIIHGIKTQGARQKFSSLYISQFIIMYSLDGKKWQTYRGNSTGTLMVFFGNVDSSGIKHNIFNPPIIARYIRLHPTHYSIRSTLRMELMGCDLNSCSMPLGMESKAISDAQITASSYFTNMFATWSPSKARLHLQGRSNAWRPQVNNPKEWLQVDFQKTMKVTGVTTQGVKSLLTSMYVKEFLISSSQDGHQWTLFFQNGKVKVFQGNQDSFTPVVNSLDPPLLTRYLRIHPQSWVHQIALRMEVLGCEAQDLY

As for “mAb413, murine monoclonal inhibitory antibody specific for the A2 domain of factor VIII”, the % Reactivity relative to wild-type in [1] was 42%; in assay [6], 60%; in [8] it was 6.7%; in assay [11] it was 0.53%; in assay [12] it was 0.015%; in assay [13] it was 126%. The % Reactivity relative to wild-type in assay [14] was below 0.5%; in [16] it was 37%; in assay [19] it was 113%; in assay [20], 1.7%. The MAb413 titer (BU/mg), Bethesda assay in assay [1] worked out at 4000 BU/mg; in [6], 5620 BU/mg; in assay [8], 630 BU/mg; in assay [11] it was 50 BU/mg; in [12], 1.6 BU/mg; in assay [13] it was 11900 BU/mg. The MAb413 titer (BU/mg), Bethesda assay is 3500 BU/mg in [16], 9400 BU/mg in assay [18], 10700 BU/mg in [19] and 160 BU/mg in assay [20]. For the same substance, the Inhibition mAb413 (BU/mg IgG), Bethesda assay in [2] was below 0.7 BU/mg IgG; in assay [3] it was 1170 BU/mg IgG; in [4], below 0.7 BU/mg IgG; in [5] it was below 0.7 BU/mg IgG; in assay [7], 1450 BU/mg IgG; in assay [9], below 0.7 BU/mg IgG. Also, the Inhibition mAb413 (BU/mg IgG), Bethesda assay was below 0.7 BU/mg IgG in assay [10]; below 0.7 BU/mg IgG in assay [15]; below 0.7 BU/mg IgG in [17]; 1470 BU/mg IgG in [18]; 1250 BU/mg IgG in [21]. The substance further showed a reactivity to inhibitor relative to human factor VIII in assay [14] of 0.2%.

On to “porcine factor VIIIa A2 domain, isolated from porcine blood (from UniProt P12263 392-759)”, for which, in assay [22], the Specific Activity (U/mg) of reconstituted hybrid fVIIIa, two-stage clotting assay at 1 hour came to 140000 U/mg. The Specific Activity (U/mg) of reconstituted fVIIIa, two-stage clotting assay at 1 hour in [23] amounted to 70000 U/mg.

The record behind these values is patent US20030166536A1.
